This note sets out measurements from patent US20080038256A1 (SEOUL NATIONAL UNIVERSITY INDUSTRY FOUNDATION, published 2008).

Changes are numbered by the printed parent chain.

Assay [1] has as its target T1, HGF/SF (hepatocyte growth factor/scatter factor) (UniProt P14210 32-728, limits assumed). The assay can be described thus: SPR (BIAcore), HGF/SF immobilized. As for the experimental part:
(§1) The binding affinity of the anti-HGF/SF Fab humanized antibody to HGF/SF was determined by SPR (Surface plasmon Resonance) on a BIAcore device (BIAcore, Sweden).
(§2) Specifically, HGF/SF was immobilized on a carboxymethyldextran-modified (CM5) sensor chip (Biacore AB) using 10 mM sodium acetate buffer (pH 4.0) at a flow rate of 5 μl/min with an amine coupling kit (Biacore AB) in accordance with the instruction of the kit. Then 4 anti-HGF/SF Fabs and SFN 68 as a control dissolved in phosphate buffered saline (PBS, pH 7.4) containing 0.005% Tween 20 (Sigma) was injected on the chip at 25° C. for 2 min at a flow rate of 30 μl/min, respectively. The anti-HGF/SF Fab humanized antibody was diluted to a varying concentration in the range of 1.25 to 200 nM. The surface was regenerated with 1 M NaCl/50 mM NaOH. The kinetic rate constants (kₒₙ and koff) as well as the equilibrium dissociation constant (KD) were determined by using BIA evaluation software.

In assay [2] the target is T1, HGF/SF (hepatocyte growth …). The assay can be described thus: competition ELISA: HGF/SF coated on the plate, cMET/Fc chimera as the blocked ligand mixed with the varied Fab, bound cMET/Fc detected with HRP anti-human Fc, Abs. at 450 nm, triplicates. As for the experimental part:
A 96-well microplate was coated with 1 μg/ml of HGF/SF and blocked by repeating the procedure of (2-2) of Example 2. Then 25 μl of 2 nM cMET/Fc chimera (R&D systems, USA) mixed with 25 μl of 0 to 200 nM HSFN 68-13 or SFN 68 dissolved in TBSB was added to the HGF/SF coated wells. The plate was incubated for at 37° C. 1 hour and washed with TBS-T. The amount of bound cMET/Fc chimera was assessed with HRP-conjugated rabbit anti-human Fc specific IgG (Pierce) using ultra-TMB substrate solution (Pierce) as a substrate. After 30 min incubation, optical density was measured at 450 nm. All experiments were performed in triplicates, and the average and standard deviation of the optical densities are listed in FIG. 5.

Assay [3] shares this target. The assay can be described thus: affinity examination of the HSFN 68 clones on HGF/SF, reference SFN68; method not named in this paragraph.
For assay [4] the target is unchanged. The assay can be described thus: SPR (BIAcore), HGF/SF immobilized on CM5 chip, Fab injected. The protocol: as §1, §2

T1 sequence (P14210 32-728 limits assumed): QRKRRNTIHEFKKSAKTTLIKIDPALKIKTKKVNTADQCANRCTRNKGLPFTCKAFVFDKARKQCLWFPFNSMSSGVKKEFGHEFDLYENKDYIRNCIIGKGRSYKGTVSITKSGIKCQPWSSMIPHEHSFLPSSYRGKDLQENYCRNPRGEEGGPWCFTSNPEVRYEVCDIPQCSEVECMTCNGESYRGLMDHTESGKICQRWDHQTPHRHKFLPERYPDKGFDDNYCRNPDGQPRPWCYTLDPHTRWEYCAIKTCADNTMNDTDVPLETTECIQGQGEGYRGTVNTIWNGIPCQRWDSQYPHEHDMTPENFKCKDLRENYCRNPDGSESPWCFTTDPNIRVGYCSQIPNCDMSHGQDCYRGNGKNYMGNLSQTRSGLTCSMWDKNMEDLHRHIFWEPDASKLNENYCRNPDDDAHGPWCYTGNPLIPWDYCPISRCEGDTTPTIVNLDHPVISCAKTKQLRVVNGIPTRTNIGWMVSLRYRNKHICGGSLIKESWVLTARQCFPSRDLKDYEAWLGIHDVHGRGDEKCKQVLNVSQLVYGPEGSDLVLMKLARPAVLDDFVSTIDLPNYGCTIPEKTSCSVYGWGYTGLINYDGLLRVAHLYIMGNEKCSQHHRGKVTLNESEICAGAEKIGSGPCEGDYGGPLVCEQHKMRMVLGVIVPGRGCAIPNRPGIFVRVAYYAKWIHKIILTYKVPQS

B1: HSFN 68-13 Fab (Fab, V domains shown)
VH: QQQLVESGGGVVRPGGSLRLSCAASGFTFSTYYMSWVRQAPGKGLEWIGYIGTSSGTTYYANSVKGRFTISSDNAKNSVYLQMNSLRPEDTAVYYCARGLGRINLWGPGTLVTVSS
VL: ELQMTQSPSSLSASVGDRVTITCRASQSISTWLAWYQQKPGKAPKLLIYKASTLESGVPLRFSGGGSGTDFTLTISSLQSEDFATYFCQQSYSLPPTFGQGTKVEVKR
notes: also called anti-HGF/SF Fab humanized antibody
Regarding B1, the “fold tighter affinity than SFN68 control” value in assay [1] is ~6 fold. Moreover, the “IC50 (read off the curve)” value in assay [2] is ~2 nM. Also, in assay [3], the “fold higher affinity than SFN68” value is ~6 fold. In assay [4], this molecule registered a Kd of 2.09 nM and a kon of 647000 M⁻¹ s⁻¹.

B2: HSFN 68-27 Fab (Fab, V domains shown)
VH: B1 VH with Q2V, V11L, R13K, L18R, K76Q, P108Q
VL: ELQMTQSPSTLSASVGDRVTITCRASQSISSRLAWYQQKPGKAPKLLIYRASTLEGGVPSRFSGSGSGTEFTLTISGLQPDDFATYYCQQYSTFSPTFGQGTQVDIKR
notes: Fab with human Ckappa and human CH1, expressed from pComb3X in E. coli HB2151
In assay [4], B2 showed a Kd of 5.27 nM and a kon of 392000 M⁻¹ s⁻¹.

B3: HSFN 68-41 Fab (Fab, V domains shown)
VH: B1 VH with V11L, R13Q, I48V, P108Q
VL: ELQMTQSPSSVSASVGDRVTISCRASQDIRSLLAWYQQKPGKAPKLLIYKASTLESGVPSRFSGSGSGTEFTLTISNLQPDDFATYYCQQYSRYSGGTFGQGTKVEIRR
notes: as for B2
In assay [4], B3 returned a Kd of 10.6 nM and an association rate constant (kon) of 106000 M⁻¹ s⁻¹.

B4: HSFN 68-16 Fab (Fab, V domains shown)
VH: B1 VH with V11L, R13Q, V37I, K76Q, P108Q
VL: B3 VL with Q3V, S10T, V11L, S22T, D28S, R30S, L32W, P59S, S65G, N77S
notes: as for B2
In assay [4], B4 came in with a Kd of 43.1 nM and a kon of 32400 M⁻¹ s⁻¹.
